PMC6358110, “Role of SpaO in the assembly of the sorting platform of a Salmonella type III secretion system” (PLoS Pathogens, 2019)

B1: SpaO^S, short form of SpaO composed of the C-terminal 101 amino acids (domain or fragment)
chain: VETLDIQHIEEENNTTETAETLPGLNQLPVKLEFVLYRKNVTLAELEAMGQQQLLSLPTNAELNVEIMANGVLLGNGELVQMNDTLGVEIHEWLSESGNGE
notes: SpaO^S, internally translated product of spaO starting at the internal GTG codon 203; the C-terminal 101 amino acids of SpaO, S. Typhimurium; Translated from an internal GTG start codon, so the first residue is probably Met rather than Val (surmised); source: E. coli Lemo21(DE3) harboring plasmid pSB3775, co-purified with His-tagged SpaO^L (Ni-NTA, Superose 6)

Key:
[1] = target: FLAG-tagged SpaO^L67pBpa (Salmonella enterica Typhimurium SL1344) (UniProt P40699); experiment: cross-linking; site-specific in vivo photo-cross-linking: pBpa in SpaO, live S. Typhimurium in PBS irradiated at 365 nm; whole cell lysates on SDS-PAGE, anti-FLAG western blot, with and without UV
[2] = target: T1, SpaO^L, full length product of spaO, N-terminal His-tagged (S. Typhimurium, UniProt P40699 1-303); experiment: SEC; N-terminal His-tagged SpaO made in E. coli, purified on Ni-NTA, run on Superose 6 10/300 GL; fractions analysed by SDS-PAGE and Coomassie; SpaO^L and SpaO^S made from one plasmid and co-purified; details: both partners purified
T1 construct: SpaO, full length product (SpaO^L) of the spaO gene, S. Typhimurium SPI-1 T3SS sorting platform component; The same plasmid gives both SpaO^L and the internally translated SpaO^S; also called His-tagged SpaO; source: E. coli Lemo21(DE3) harboring plasmid pSB3775, purified (Ni-NTA, Superose 6); not shown: His tag, N-terminal, kept
T1 sequence: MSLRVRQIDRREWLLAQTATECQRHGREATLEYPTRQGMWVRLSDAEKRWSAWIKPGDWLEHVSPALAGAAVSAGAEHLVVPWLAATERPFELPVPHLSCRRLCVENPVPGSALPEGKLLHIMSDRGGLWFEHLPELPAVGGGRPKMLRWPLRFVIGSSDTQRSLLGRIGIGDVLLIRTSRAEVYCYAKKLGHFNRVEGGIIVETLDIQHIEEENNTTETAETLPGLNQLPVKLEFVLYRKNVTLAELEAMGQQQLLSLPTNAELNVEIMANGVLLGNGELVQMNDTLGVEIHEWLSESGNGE

Molecule | stoichiometry N [1] | stoichiometry N [2] [SpaO^S per SpaO^L]
FLAG-tagged SpaO^L67pBpa (from UniProt P40699 1-303) (natural protein) | 4 | 
B1 |  | 2
